Molecular target: 21c Fab (human)
Experiment: SPR

Kd: 0.092 µM
Substance: CAP210_(V1V2) (core CAP210 gp120 containing the V1V2 loop) with sCD4 (complex)
